In the experiment the target is ICAM-1 on HeLa cells (human) (UniProt P05362). In words: cell-based or functional assay.

1 substance from US8394771 can be followed below.

In turn, “bivalent anti-ICAM-1 monoclonal antibody RR/1 (Chemicon)” returned an EC50, protection of HeLa cells from HRV15 infection above 10 nM.
